B1: CPEB3 Ribozyme (parent)
chain: UAACAGGGGGCCACAGCAGAAGCGUUCACGUCGCAGCCCCUGUCAGAUUCUGGUGAAUCUGCGAAUUCUGCUGUAUAUCUC

Variants of: B1
Assay: self-cleavage, relative activity (ratio to wild type); higher = more cleavage; in vitro, sequencing
In short: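 CPEB3 self-cleaving ribozyme mutant libraries were made by rounds of error-prone PCR, barcoded, and transcribed in vitro with T7 RNA polymerase for 5 hours at 37°C. Cleavage occurred during transcription and a 15 min DNase I step before EDTA stop. RNAs were reverse transcribed with template switching and Illumina-sequenced, with DNA sequencing mapping barcodes to variants. Relative activity is the variant's cleaved/total read fraction divided by wild type's (minimum 5 reads), averaged across three batches.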

| Variant | self-cleavage |
| --- | --- |
| G6A G53C | 0.43 |
| G6A G53A | 0.34 |
| G6A G24A | 0.34 |
| G6A G24U | 0.23 |
| A5U U74A | 1.24 |
| A5U U74C | 1.14 |
| G6A G46U | 0.32 |
| A5U G7C | 0.48 |
| A5U G7A | 0.22 |
| A5U G7U | 0.35 |
| A5U A47G | 0.95 |
| A5U A20C | 0.49 |
| A5U A20G | 0.91 |
| A5U U26A | 1.05 |
| A5U U26C | 0.72 |
| G6A A45U | 0.38 |
| G6A A45G | 0.14 |
| A5G U67C | 0.34 |
| A5G U67A | 0.39 |
| G6A U72A | 0.2 |
| G6A U72C | 0.4 |
| G6A C34U | 0.15 |
| G6A A64G | 0.27 |
| G6A A64U | 0.2 |

| Variant | self-cleavage |
| --- | --- |
| A5G U69C | 0.37 |
| A5G U69G | 0.49 |
| A5G U69A | 0.49 |
| A5U A13U | 1.16 |
| A5U A13C | 1.15 |
| A5U A13G | 1.01 |
| A5U G52A | 1.1 |
| A5U G52U | 1.15 |
| A5U G10A | 0.12 |
| A5U G10C | 0.5 |
| G6A G63A | 0.34 |
| G6A A21G | 0.49 |
| G6A A21U | 0.31 |
| G6A G73U | 0.89 |
| A5U G53A | 1.14 |
| G6A U54A | 0.27 |
| G6A U54C | 0.52 |
| G6A U54G | 0.19 |
| A5U U67C | 0.29 |
| A5U U67A | 0.63 |
| A5U U67G | 0.54 |
| A5U A35U | 0.63 |
| A5U A35C | 1.2 |
| A5U A35G | 1.19 |

| Variant | self-cleavage |
| --- | --- |
| G6A C79A | 0.38 |
| G6A C79U | 0.55 |
| A5U U43C | 0.76 |
| A5U U43A | 1.24 |
| A5U G6A | 0.52 |
| G6A C62G | 0.42 |
| G6A C62U | 0.25 |
| G6A C62A | 0.16 |
| A5U U72C | 1.14 |
| A5U U72G | 0.94 |
| A5U U72A | 0.71 |
| A5U C32A | 0.32 |
| A5U C32G | 0.16 |
| A5U C32U | 0.31 |
| A5U C29A | 0.36 |
| A5U C29U | 0.54 |
| A5U U69C | 0.74 |
| A5U U69A | 0.81 |
| A5G G61A | 0.49 |
| A5G U26G | 0.55 |
| A5G U26A | 0.56 |
| A5G U26C | 0.44 |
| A5U C62U | 0.22 |
| A5U C62G | 0.49 |

| Variant | self-cleavage |
| --- | --- |
| A5U A21G | 0.77 |
| A5U A21U | 0.53 |
| A5U A21C | 0.29 |
| A5G U60A | 0.31 |
| A5G U60C | 0.36 |
| A5G U60G | 0.35 |
| G6A A35U | 0.26 |
| G6A A35G | 0.86 |
| G6A A35C | 0.3 |
| A5U G46A | 0.36 |
| A5U C17G | 0.26 |
| A5U C17U | 0.73 |
| G6A C37U | 0.2 |
| G6A U31A | 0.21 |
| G6A U31C | 0.34 |
| G6A G9A | 0.25 |
| G6A G9C | 0.07 |
| A5U G8A | 0.12 |
| A5U G8C | 0.1 |
| A5U A65G | 0.55 |
| A5U A65U | 0.28 |
| G6A A56U | 0.2 |
| G6A A56G | 0.28 |
| G6A C17U | 0.22 |

| Variant | self-cleavage |
| --- | --- |
| G6A C17A | 0.54 |
| G6A U58A | 0.27 |
| G6A U58G | 0.29 |
| G6A U58C | 0.14 |
| A5G G73C | 1.25 |
| A5G G73U | 1.17 |
| A5G G73A | 1.17 |
| G6A G19A | 0.26 |
| G6A G19U | 0.06 |
| G6A G19C | 0.42 |
| A5U G22A | 0.28 |
| A5U C27U | 0.22 |
| A5U C27G | 0.21 |
| G6A A75U | 0.51 |
| G6A A75G | 0.27 |
| A5G U76G | 0.6 |
| A5G U76C | 0.76 |
| A5G U76A | 0.85 |
| A5G G53C | 0.8 |
| A5G G53A | 0.88 |
| A5G G53U | 1.03 |
| A5G G52U | 0.73 |
| A5G G52A | 1 |
| A5U U25C | 0.41 |

| Variant | self-cleavage |
| --- | --- |
| A5U U25A | 0.26 |
| G6A G30A | 0.19 |
| A5U C40U | 0.78 |
| A5U C40A | 0.09 |
| G6A C81U | 0.73 |
| G6A G42A | 0.15 |
| A5U G63A | 1.06 |
| A5G U49C | 0.31 |
| A5G U49A | 0.53 |
| A5U C71U | 0.79 |
| A5U C71A | 0.48 |
| G6A G10C | 0.23 |
| G6A G10A | 0.41 |
| A5U G55U | 1.15 |
| G6A U41A | 0.26 |
| G6A U41G | 0.18 |
| G6A U41C | 0.31 |
| G6A U25C | 0.27 |
| G6A U25G | 0.47 |
| A5U U49C | 0.55 |
| A5U U49A | 0.44 |
| A5U A56G | 0.81 |
| A5U A56C | 0.91 |
| A5U A56U | 0.9 |

| Variant | self-cleavage |
| --- | --- |
| A5U C68U | 0.99 |
| A5U C68A | 0.29 |
| A5U G24U | 0.43 |
| A5U G24A | 0.4 |
| A5U G24C | 0.36 |
| A5U G9A | 0.45 |
| A5U G9U | 0.34 |
| A5U U31A | 0.5 |
| A5U U31C | 0.92 |
| A5U A77G | 1.09 |
| A5U A77U | 1.16 |
| A5U C50A | 1.01 |
| A5U U51C | 1.13 |
| A5U U51G | 1.16 |
| A5U U51A | 0.96 |
| A5U C81A | 1.24 |
| A5U C81G | 1.29 |
| A5U C81U | 1.17 |
| G6A | 0.4 |
| A5U U66G | 0.93 |
| A5U U66C | 0.45 |
| A5U U66A | 0.46 |
| A5G U58A | 0.24 |

From the RNAGym collection of RNA variant scans (doi:10.1093/nar/gkz1192)
